{
  "source": "patent US7786356B2",
  "about": "“Method for the production of calendic acid, a fatty acid containing delta 8,10,12 conjugated double bonds and related fatty acids having a modification at the delta 9 position” (E.I. du Pont de Nemours and Company, priority 1999, dated 2010)",
  "molecules": {"B1": {"name": "CalFad2-1: Calendula officinalis fatty acid modifying enzyme (cDNA SEQ ID NO:1, protein SEQ ID NO:2) forming conjugated double bonds at delta-9 position (protein, listed as Calendula officinalis)", "chain": "MGKGASNKKVLERVPITKPPFEYNDLKKAVPPHCFSRPLFRSFYFLLHDIIVTCILFYVASNYIPMLPGFLSYIVWPVYWISQGVFLGRLWMIGHECGHHSFSNYRWVDDSVGFLIHTATLTPYFSFKYSHRNHHAHTNSMEYDEVHIPKRKSEALDLYFEFLGNNPMGLMITMLCKLTFGYAAYIMFNYTGKKHKSGGLASHFYPQSPLFNDSERNHVLFSDVGICIVLYACYRIVMVTGAMSAFYVYGIPWVIMSAILFAATYLQHTHPSIPHYDTTEWNWLRGALSTIDRDLGFFNMNKTHYHVIHHLFPVIPEYHAQEATEAIKPILGQYYKYDGTPFLKALWREMKDCIYVESDQGQKKQGIYWFKNKI"}},
  "key": {"[1]": {"tested_on": "Saccharomyces cerevisiae INVSc1 cells", "experiment": "Expression of CalFad2-1 and CalFad2-2 in Saccharomyces cerevisiae", "format": "cell-based", "details": "cells grown in media containing 2 mM linoleic acid, 4 days at 16° C.; (w/w) of total fatty acids", "excerpt": "The Calendula officinalis clones CalFad2-1 and CalFad2-2 were digested with the restriction enzymes EcoRI and XhoI. The resulting DNA fragments containing the entire cDNA inserts were purified by agarose gel electrophoresis. The purified cDNAs were ligated into the EcoRI and XhoI sites of the Saccharomyces cerevisiae expression vector pYES2 (Invitrogen) using T4 DNA ligase (New England Biolabs). The resulting plasmids pYes2/CalFad2-1 and pYes2/CalFad2-2 were introduced into Saccharomyces cerevisiae INVSc1 (Invitrogen Corp.) cells by lithium acetate-mediated transformation [Sherman F, Fink G R, Hicks J B, Methods in Yeast Genetics: A Laboratory Course Manual, Cold Spring Harbor Lab. Press, Plainview, N.Y. (1987)]. Transformed cells were selected for their ability to grow in the absence of uracil. […] In cells grown in media containing linoleic acid, calendic acid (18:3Δ^8trans,10trans,12cis) was detected in amounts of up to 2.9% (w/w) of the total fatty acids of cultures expressing CalFad2-1 (FIG. 3) and in amounts of up to 0.2% of the total fatty acids of cultures expressing CalFad2-2. […] No calendic acid was detected in cultures harboring the expression vector without a cDNA insert or in cells grown in the absence of exogenous linoleic acid. […]"}, "somatic soybean embryos": {"tested_on": "somatic soybean embryos", "experiment": "Production of calendic acid in somatic soybean embryos expressing CalFad2-1 or CalFad2-2", "format": "cell-based", "details": "single somatic embryos", "excerpt": "The open-reading frames of these cDNAs were amplified by PCR in order generate the appropriate flanking restriction enzyme sites for cloning into the soybean expression vector. The oligonucleotide primers used for amplification of the CalFad2-1 open-reading frame were: 5′-ttgcggccgc[…]-3′ (sense, SEQ ID NO:18) and 5′-ttgcggccg[…]-3′ (antisense, SEQ ID NO:19). The oligonucleotide primers used for amplification of the CalFad2-2 coding sequence were: 5′-agcggccgcTATACCATGGGCAAG-3′ (sense, SEQ ID NO:20) and 5′-tgcggccgcTATGTTAAACTTC-3′ (antisense, SEQ ID NO:21). [Note: The sequences shown in lower case contain an added NotI site along with additional bases to facilitate restriction enzyme digestion.] The template was the cDNA corresponding to either EST ecs1c.pk009.n14 (CalFad2-1) or EST ecs1c.pk08.a24 (CalFad2-2), and Pfu polymerase (Stratagene) was used for the amplification reactions. The resulting PCR products were subcloned into the intermediate vector pCR-Script AMP SK(+) (Stratagene) according to the manufacturer's protocol. The amplified CalFad2-1 and CalFad2-2 coding sequences were then released with NotI digestion and then subcloned into the corresponding site of the soybean expression vector pKS67.\nThe PCR amplified coding sequences of CalFad2-1 and CalFa2-2 were fused with the β-conglycinin promoter and phaseolin termination sequences in vector pKS67 was transformed into somatic soybean embryos as follows. To induce somatic embryos, cotyledons, 3-5 mm in length dissected from surface sterilized, immature seeds of a soybean cultivar A2872 or JACK-910 were cultured in the light or dark at 26° C. on an appropriate agar medium for 6-10 weeks. Somatic embryos that produce secondary embryos were then excised and placed into a suitable liquid medium. After repeated selection for clusters of somatic embryos that multiplied as early, globular staged embryos, the suspensions were maintained as described below.\nSoybean embryogenic suspension cultures were maintained in 35 mL liquid media on a rotary shaker, 150 rpm, at 26° C. with florescent lights on a 16:8 hour day/night schedule. Cultures were subcultured every two weeks by inoculating approximately 35 mg of tissue into 35 mL of liquid medium.\nSoybean embryogenic suspension cultures were then transformed with the vector pKS67 containing the coding sequence for CalFad2-1 and CalFad2-2 by the method of particle gun bombardment (Klein et al. (1987) Nature (London) 327:70, U.S. Pat. No. 4,945,050). A Du Pont Biolisticä PDS1000/HE instrument (helium retrofit) was used for these transformations.\nTo […] of a 60 mg/mL […] gold particle suspension were added (in order): 5 mL DNA (1 mg/mL), 20 ml spermidine (0.1 M), and […] CaCl2 (2.5 M). The particle preparation was then agitated for three minutes, spun in a microfuge for 10 seconds and the supernatant removed. The DNA-coated particles were then washed once in 400 mL 70% ethanol and resuspended in 40 mL of anhydrous ethanol. The DNA/particle suspension was sonicated three times for one second each. Five mL of the DNA-coated gold particles was then loaded on each macro carrier disk.\nApproximately 300-400 mg of a two-week-old suspension culture was placed in an empty 60×15-mm petri dish and the residual liquid removed from the tissue with a pipette. For each transformation experiment, approximately 5 to 10 plates of tissue were bombarded. Membrane rupture pressure was set at 1100 psi and the chamber was evacuated to a vacuum of 28 inches mercury. The tissue was placed approximately 3.5 inches away from the retaining screen and bombarded three times. Following bombardment, the tissue was divided in half and placed back into liquid and cultured as described above.\nFive to seven days post bombardment, the liquid media was exchanged with fresh media, and eleven to twelve days post bombardment with fresh media containing […] hygromycin. This selective media was refreshed weekly. […]"}, "[2]": {"details": "n = 5, ± standard deviation, weight % of total fatty acids"}},
  "data": [
    {"molecule": "B1", "values": [
      {"measurement": "calendic acid (18:3Δ8trans,10trans,12cis), amount of the total fatty acids", "setting": "[1]", "result": "up to 2.9%"},
      {"measurement": "Other, Fatty Acid Weight %", "setting": "somatic soybean embryos; n = 5, weight % of total fatty acids", "result": "≦1.3 Weight %"},
      {"measurement": "16:0, Fatty Acid Weight %", "setting": "somatic soybean embryos; [2]", "result": "12.2 ± 1.0", "unit": "Weight %"},
      {"measurement": "18:0, Fatty Acid Weight %", "setting": "somatic soybean embryos; [2]", "result": "3.5 ± 0.9", "unit": "Weight %"},
      {"measurement": "18:1, Fatty Acid Weight %", "setting": "somatic soybean embryos; [2]", "result": "9.0 ± 1.5", "unit": "Weight %"},
      {"measurement": "18:2, Fatty Acid Weight %", "setting": "somatic soybean embryos; [2]", "result": "52.2 ± 2.4", "unit": "Weight %"},
      {"measurement": "18:3, Fatty Acid Weight %", "setting": "somatic soybean embryos; [2]", "result": "18.8 ± 3.0", "unit": "Weight %"},
      {"measurement": "Calendic Acid, Fatty Acid Weight %", "setting": "somatic soybean embryos; [2]", "result": "3.1 ± 1.0", "unit": "Weight %"}
    ]}
  ]
}
